Experimental data: the supplement of paper PMC6757056
± gives the standard deviation of the averaged measurements.

B1: library; a variant is named by its letters at N, in order (parent)
chain: GCUGUCACCGGUGCUUGGUACGUUAUAUUCAGCCGGUCUGAUGAGUCUNNNNNNAGACGAAACAGC

Key:
(6R,S)-folinic acid [1] = variants of: B1; test: normalized RNA/DNA level without ligand (relative to sTRSVctl = 100) (log10 (% of sTRSVctl)); HEK293T overexpressing SLC46A1; higher = less ribozyme self-cleavage, higher mRNA level; details: without (6R,S)-folinic acid; ligand present: no
In short: (§1)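 HEK293T cells received ligand, where used, 1 h before being transfected with 4 µg per 6-well well of library plasmids encoding reporter-linked ribozyme switches. After 72 h, RNA was extracted with EDTA and sequenced. RNA level was derived from RNA reads per DNA read, normalized to a spiked-in non-cleaving sequence or the top sequences, then scaled and log-transformed. Values were ×100 then log10, the top set was 25 sequences, and the minimum was 100 DNA reads.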

(6R,S)-folinic acid [2] = variants of: B1; test: normalized RNA/DNA level with ligand (relative to sTRSVctl = 100) (log10 (% of sTRSVctl)); HEK293T overexpressing SLC46A1; ligand concentration (+) RNA-Seq: 6 mM; higher = less ribozyme self-cleavage, higher mRNA level; details: with (6R,S)-folinic acid; ligand present: yes
In short: as §1

Row | Variant | normalized RNA/DNA level without ligand (log10) ((6R,S)-folinic acid [1]) | normalized RNA/DNA level with ligand (log10) ((6R,S)-folinic acid [2])
1 | CCAGAA | 1.982 ± 0.0051 | 1.98 ± 0.053
2 | GCAGAG | 1.808 ± 0.01 | 2 ± 0.074
3 | GCAGAA | 1.942 ± 0.0071 | 2.01 ± 0.044
4 | GCAGAC | 1.98 ± 0.037 | 2.02 ± 0.022
5 | GCACGG | 1.997 ± 0.016 | 2.006 ± 0.018
6 | GCACGA | 2.029 ± 0.005 | 2.03 ± 0.038
7 | GCACGU | 1.99 ± 0.02 | 2.01 ± 0.023
8 | GCACGC | 2.025 ± 0.0075 | 2.024 ± 0.02
9 | UCAUCA | 2.05 ± 0.039 | 2.03 ± 0.044
10 | UCAUCU | 2.064 ± 0.0079 | 2.055 ± 0.0055
11 | UCAUCG | 1.997 ± 0.0043 | 2.01 ± 0.04
12 | UCAUCC | 2.07 ± 0.051 | 2.05 ± 0.041
13 | ACAGGC | 2.03 ± 0.021 | 2.01 ± 0.032
14 | ACAGGA | 1.948 ± 0.011 | 2.03 ± 0.037
15 | GCAUAC | 1.9845 ± 0.0011 | 2.03 ± 0.033
16 | GCACAG | 1.936 ± 0.0048 | 2 ± 0.024
17 | GCACAU | 1.991 ± 0.0072 | 2.01 ± 0.025
18 | UCCAAU | 1.953 ± 0.0052 | 1.96 ± 0.028
19 | UCCAAA | 1.982 ± 0.0034 | 1.986 ± 0.015
20 | UCCAAC | 2.067 ± 0.0087 | 2.06 ± 0.03
21 | GCAGCC | 2 ± 0.024 | 2.02 ± 0.025
22 | GCAGCA | 2.048 ± 0.018 | 2.06 ± 0.037
23 | GCAGCU | 2.03 ± 0.029 | 2.02 ± 0.045
24 | ACCAAG | 2.0073 ± 0.00077 | 2.009 ± 0.014

Row | Variant | normalized RNA/DNA level without ligand (log10) ((6R,S)-folinic acid [1]) | normalized RNA/DNA level with ligand (log10) ((6R,S)-folinic acid [2])
25 | ACCAAC | 2.025 ± 0.012 | 2.02 ± 0.029
26 | ACCAAU | 1.955 ± 0.01 | 2.012 ± 0.0037
27 | UCCCGA | 2.033 ± 0.008 | 2.07 ± 0.033
28 | ACAUGC | 2.014 ± 0.014 | 2.04 ± 0.07
29 | ACAUGU | 2.022 ± 0.0056 | 2.02 ± 0.023
30 | ACAUGA | 1.979 ± 0.01 | 2.034 ± 0.019
31 | UCAGCC | 2.044 ± 0.0032 | 1.99 ± 0.039
32 | UCAGCA | 2.032 ± 0.016 | 2.062 ± 0.02
33 | UCAGCU | 2.046 ± 0.011 | 2.032 ± 0.0099
34 | UCCAGU | 1.94 ± 0.029 | 1.99 ± 0.029
35 | UCCAGC | 2.035 ± 0.016 | 2.03 ± 0.022
36 | CCCAUG | 2.044 ± 0.0075 | 2 ± 0.033
37 | CCCAUU | 2.09 ± 0.024 | 2.079 ± 0.01
38 | CCCAUA | 2.02 ± 0.036 | 2.03 ± 0.05
39 | ACAUCG | 2.006 ± 0.014 | 2.07 ± 0.027
40 | ACAUCU | 2.024 ± 0.011 | 2.03 ± 0.037
41 | ACAUUA | 2.006 ± 0.017 | 2.02 ± 0.034
42 | ACAUUC | 2.072 ± 0.0067 | 2.027 ± 0.0058
43 | ACAUUU | 2 ± 0.024 | 2.019 ± 0.018
44 | ACAUUG | 1.94 ± 0.032 | 2.024 ± 0.011
45 | ACCACC | 2.087 ± 0.0062 | 2.06 ± 0.04
46 | ACCACU | 2.029 ± 0.0042 | 1.99 ± 0.066
47 | ACCACG | 2.023 ± 0.0076 | 2.061 ± 0.003
48 | ACCACA | 2.021 ± 0.0096 | 2.01 ± 0.021

Row | Variant | normalized RNA/DNA level without ligand (log10) ((6R,S)-folinic acid [1]) | normalized RNA/DNA level with ligand (log10) ((6R,S)-folinic acid [2])
49 | GCCCAC | 2.02 ± 0.011 | 2.01 ± 0.034
50 | GCCCAU | 2.014 ± 0.0026 | 2.02 ± 0.061
51 | GCCCAG | 2 ± 0.028 | 2 ± 0.059
52 | GCCCAA | 2.03 ± 0.014 | 2.02 ± 0.042
53 | CCAUGC | 2.054 ± 0.015 | 2.05 ± 0.04
54 | CCAUGG | 1.986 ± 0.013 | 2.016 ± 0.015
55 | CCAUGA | 1.981 ± 0.0035 | 2 ± 0.059
56 | UCAGGC | 2.031 ± 0.003 | 2.03 ± 0.057
57 | UCAUGA | 2.01 ± 0.028 | 2.053 ± 0.019
58 | UCAUGG | 1.947 ± 0.0059 | 2.03 ± 0.048
59 | UCAUGU | 1.942 ± 0.0042 | 2.01 ± 0.039
60 | CCCCCU | 2.063 ± 0.017 | 2.01 ± 0.037
61 | CCCCCA | 2.023 ± 0.004 | 1.99 ± 0.047
62 | CCCCCC | 2.0694 ± 0.0015 | 2.02 ± 0.063
63 | CCCCCG | 2.05 ± 0.023 | 2 ± 0.0065
64 | CCAUUC | 2.045 ± 0.02 | 2.03 ± 0.048
65 | CCAUUA | 1.9907 ± 0.00033 | 2 ± 0.023
66 | CCAUUG | 1.97 ± 0.031 | 2.015 ± 0.0036
67 | CCAUUU | 2.012 ± 0.018 | 2.04 ± 0.036
68 | GCAUUG | 1.952 ± 0.009 | 2.01 ± 0.011
69 | GCAUUU | 2.03 ± 0.0026 | 2.04 ± 0.04
70 | GCAUUC | 2.03 ± 0.052 | 2.023 ± 0.0067
71 | GCCAUA | 2.016 ± 0.0031 | 2.02 ± 0.052
72 | GCCAUU | 2.041 ± 0.0051 | 2.008 ± 0.015

Row | Variant | normalized RNA/DNA level without ligand (log10) ((6R,S)-folinic acid [1]) | normalized RNA/DNA level with ligand (log10) ((6R,S)-folinic acid [2])
73 | GCCAUC | 2.02 ± 0.031 | 2 ± 0.032
74 | ACCCAA | 2.02 ± 0.024 | 2.018 ± 0.013
75 | ACCCAU | 2.013 ± 0.01 | 2.01 ± 0.036
76 | ACCCAG | 1.98 ± 0.01 | 2 ± 0.044
77 | ACCCAC | 2.02 ± 0.016 | 2 ± 0.044
78 | CCAUAU | 1.961 ± 0.0029 | 1.99 ± 0.032
79 | CCAUAC | 1.991 ± 0.012 | 1.96 ± 0.059
80 | CCAUAA | 1.98 ± 0.023 | 1.97 ± 0.027
81 | CCAUAG | 1.922 ± 0.0071 | 1.99 ± 0.02
82 | UCAUUA | 2.003 ± 0.014 | 2.04 ± 0.023
83 | UCAUUU | 2.021 ± 0.014 | 2.02 ± 0.047
84 | UCAUUC | 2.067 ± 0.013 | 2.07 ± 0.021
85 | CCAGGC | 2.094 ± 0.018 | 2.05 ± 0.026
86 | CCAGGA | 1.993 ± 0.00019 | 1.98 ± 0.036
87 | CCAGGG | 1.99 ± 0.021 | 2.038 ± 0.018
88 | CCAGGU | 2.026 ± 0.0082 | 2.05 ± 0.033
89 | GCAGGU | 1.934 ± 0.012 | 1.99 ± 0.03
90 | GCAGGC | 1.882 ± 0.0089 | 1.86 ± 0.042
91 | CCAGUA | 2.027 ± 0.0027 | 2.05 ± 0.044
92 | CCAGUU | 2.019 ± 0.013 | 2.02 ± 0.05
93 | CCAGUC | 2.06 ± 0.0079 | 2.0299 ± 0.00081
94 | UCACGG | 1.965 ± 0.019 | 2 ± 0.043
95 | UCACGU | 1.98 ± 0.036 | 2.01 ± 0.03
96 | UCACGC | 2.036 ± 0.0036 | 1.97 ± 0.023

Row | Variant | normalized RNA/DNA level without ligand (log10) ((6R,S)-folinic acid [1]) | normalized RNA/DNA level with ligand (log10) ((6R,S)-folinic acid [2])
97 | UCACGA | 2.019 ± 0.0037 | 2.03 ± 0.028
98 | ACAGCU | 2.06 ± 0.024 | 2.059 ± 0.004
99 | ACAGCC | 2.03 ± 0.0033 | 2.04 ± 0.045
100 | UCAGAG | 1.75 ± 0.026 | 1.98 ± 0.0089
101 | UCAGAC | 2.046 ± 0.0027 | 1.997 ± 0.016
102 | UCAGAA | 1.9353 ± 0.0018 | 2.017 ± 0.013
103 | ACACAG | 1.953 ± 0.0027 | 2.01 ± 0.048
104 | ACACAC | 2.019 ± 0.0045 | 2.01 ± 0.058
105 | CCACCC | 2.038 ± 0.011 | 1.994 ± 0.014
106 | CCACCG | 2.007 ± 0.018 | 2.01 ± 0.054
107 | CCACCU | 2.101 ± 0.015 | 2.07 ± 0.033
108 | CCACCA | 2.044 ± 0.012 | 2.01 ± 0.041
109 | GCCCCA | 2.031 ± 0.0049 | 2.01 ± 0.042
110 | GCCCCU | 2.0548 ± 0.00021 | 2.024 ± 0.011
111 | GCCCCC | 2.03 ± 0.032 | 2.04 ± 0.048
112 | GCCCCG | 2.041 ± 0.012 | 1.99 ± 0.034
113 | UCCAUG | 1.857 ± 0.005 | 1.97 ± 0.053
114 | UCCAUU | 2.033 ± 0.011 | 2.006 ± 0.006
115 | UCCAUA | 1.972 ± 0.0018 | 1.98 ± 0.042
116 | UCCAUC | 2.036 ± 0.018 | 2.01 ± 0.051
